In one data set the test system is MS2 coat protein. Kind of data set: apparent KD of MS2 coat protein; designed switch direction (-1 OFF switch, 1 ON switch): 1; higher = weaker reporter binding. In a few lines:
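Apparent KD, taken as the median over clusters for each design, was obtained by curve-fitting normalised cluster fluorescence. Designed RNA switches had been transcribed on Illumina chips by stalled E. coli RNA polymerase and titrated with SNAP-549-labelled MS2 coat protein, doubling from 0.7 or 1.5 nM to 3 µM.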

The test system of data set [1] is K4 kissing-loop RNA reporter. Kind of data set: apparent KD of K4 kissing-loop reporter; higher = weaker reporter binding. Conditions: Eterna round: R107. Here is the method: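 RNA-MaP round R107: designed RNA switches with theophylline, tryptophan, arginine or FMN aptamers are transcribed on-chip within common flanks. They are titrated with a labelled K4 kissing-loop RNA reporter in RNA-MaP buffer (100 mM Tris pH 7.5, 80 mM KCl, 4 mM MgCl2), without ligand or with the indicated ligand. Median apparent KD per design.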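 Note: bound reporter read as fluorescence of individual clusters on recovered sequencing chips by microscopy, with normalized cluster intensities fitted with a binding model.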

[2] abbreviates: input ligand: microRNA oligo, concentration not stated.
Setting [3] is: Eterna round: R95, input ligand: microRNA oligo, concentration not stated.
[4] abbreviates: Eterna round: R95, input ligand: FMN 200 uM.
Setting [5] is: Eterna round: R95, input ligand: none.
[6] abbreviates: input ligand: theophylline 20 uM.
The mark [7] stands for this setting: input ligand: tryptophan 2.4 mM.

With “AAAAAACAUGAGGAUCACCCAUGUCAAAAGACAUGAGGAUAUGUACAGACUUCGGUCUGUACAGAAGGCAUGUAAA [SS1 - 1015] (Eterna round: R96, puzzle: Same State 1)”, the “apparent KD of MS2 coat protein” value with MS2 coat protein (input ligand: FMN 200 uM) came to 28.9 nM; in the data set with MS2 coat protein (setting [2]) it was 241 nM; in the data set on MS2 coat protein (input ligand: none), 319 nM.
Regarding “AAAAGAAACACAGGAUAUACCGCACUUAACGCGGUAGAAGGGUGGGACAUGAGGAUCACCCAUGUGGCCUAAGCGCCAGGCCGC [Tibiorvela] (Eterna round: R96, puzzle: Same State NG 1)”, the “apparent KD of MS2 coat protein” value is 3890 nM in the data set with MS2 coat protein (input ligand: FMN 200 uM), 13.1 nM with MS2 coat protein (setting [2]) and 211 nM in the data set with MS2 coat protein (input ligand: none).
As for “AAAAUGGUAUGUUACAUGAGGAUCACCCAUGUACCGUCAUCUGAGGAUAUGGUGAUGUAGAAGAAUCAGAAGGCAGACAUUUAA [AK SSNG3-V2-25] (Eterna round: R96, puzzle: Same State NG 3)”, the “apparent KD of MS2 coat protein” value with MS2 coat protein (input ligand: FMN 200 uM) was 17.3 nM; in the data set on MS2 coat protein (setting [2]), 20 nM; in the data set on MS2 coat protein (input ligand: none), 34.1 nM.
For “AAACAUGAGCGAGGAUAUGCGGAGGAUCACCCUGUAGAAGGCGCAUGUAAAACAACAUGAGGAUCACCCAUGUCAUGUACAUAA (Eterna round: R96, puzzle: Same State NG 1)” the same measures were 77.5 nM, 144 nM and 223 nM.
The like results for “AAACAUGAGCGAGGAUAUGCGGAGGAUUACCCUGUAGAAGGCGCAUGUAAAACAACAUGAGGAUCACCCAUGUCAUGUACAUGU (Eterna round: R96, puzzle: Same State NG 1)” were, in that order, 168 nM, 115 nM and 226 nM.
Consider “AAACCACAUGAGGAUCACCCAUGUGAUAAAAGCAUAGGAUAUCUGGAUGUGAGAGGCGGCAGAGAAGGAUGCACGC [Laoror] (puzzle: Same State 1)”, for which the “apparent KD of MS2 coat protein” value in the data set with MS2 coat protein (setting [3]) came out at 58.2 nM.
With “AAACGGCCGAACGGAGGGCCACAUGAGGAUCACCCAUGUACAUAGGAUAUCACACCAACGAGGCGUGAGAAGGGUGAUUAAAAC [Teisedbe] (Eterna round: R96, puzzle: Same State NG 3)”, the results for the “apparent KD of MS2 coat protein” value in the data set on MS2 coat protein (input ligand: FMN 200 uM), in the data set with MS2 coat protein (setting [2]) and with MS2 coat protein (input ligand: none) were 176 nM, 52.1 nM and 1110 nM, respectively.
Turning to “AAACUACAUGAGGAUCACCCAUGUGAAAACCGCAUAGGAUAUCCGCAGCAAUGAGCUGACGGAGAAGGGUGACCGG [Riater] (puzzle: Same State 1)”, the results for the “apparent KD of MS2 coat protein” value in the data set on MS2 coat protein (setting [4]), in the data set on MS2 coat protein (setting [3]) and with MS2 coat protein (setting [5]) were 175 nM, 103 nM and 276 nM, respectively.
“AAAGAAAACGCAGGAUAUCCCGGAAUGGAAACGGGAGAAGGGUGACCGGUACAUGAGGAUCACCCAUGUAGAGCACAGGCUCAA [Sousdi] (Eterna round: R96, puzzle: Same State NG 1)”: the entries for the “apparent KD of MS2 coat protein” value in the data set with MS2 coat protein (input ligand: FMN 200 uM), in the data set with MS2 coat protein (setting [2]) and with MS2 coat protein (input ligand: none) were 3380 nM, 39.4 nM and 922 nM, respectively.
“AAAGGACAUGAGGAUCACCCAUGUAGAAAAUACACAGGAUAUCGUCAUAUCGAAAUAUAAUGAGAAGGGUGCAAAA [Zaanininra] (puzzle: Same State 1)”: the “apparent KD of MS2 coat protein” value in the data set with MS2 coat protein (setting [4]) was found to be 73.5 nM; in the data set with MS2 coat protein (setting [3]), 179 nM; in the data set on MS2 coat protein (setting [5]), 256 nM.
Turning to “AAAGUACAUGAGGAUCACCCAUGUCCCAAUGAAUAAGGAUAUACGAAAAUAAAAUAAAAUGUAGAAGGUAUAAUAG [Same State 1 #1] (puzzle: Same State 1)”, in the data set with MS2 coat protein (setting [3]), the “apparent KD of MS2 coat protein” value was determined as 30.5 nM.
Consider “AAAUAAAUGACUCAGGAUAUAUCAUAGAAUACAUGAGGAUCACCCAUGUUUUAAUAACAUGUUUGGUAGAAGGGAGUCAAUAAAU [LROPPY Same State 2 - v05_deltaG=1.86] (Eterna round: R96, puzzle: Same State 2)”, for which the “apparent KD of MS2 coat protein” value is 25.2 nM with MS2 coat protein (input ligand: FMN 200 uM), 78.1 nM in the data set on MS2 coat protein (setting [2]) and 105 nM in the data set with MS2 coat protein (input ligand: none).
As to “AACAAUCUAUCUGAGGAUAUCAUGAAAUAAACAUGAGGAUCACCCAUGUGCAGGAAAACUGCAUAUGAGAAGGCUGAUAGAUUGA [salish99_ss2_r3_051] (puzzle: Same State 2)”, the figures for the “apparent KD of MS2 coat protein” value with MS2 coat protein (setting [4]), in the data set with MS2 coat protein (setting [3]) and with MS2 coat protein (setting [5]) were 78 nM, 574 nM and 5350 nM, respectively.
Turning to “AACAAUCUAUCUGAGGAUAUCAUGAAAUAAACAUGAGGAUCACCCAUGUGUAGGAAAACUGCAUAUGAGAAGGCAGAUAGAUUGA [salish99_ss2_r3_036] (Eterna round: R96, puzzle: Same State 2)”, the “apparent KD of MS2 coat protein” value with MS2 coat protein (setting [2]) is 465 nM.
Consider “AACAAUCUAUCUGAGGAUAUCAUGAAAUAAACAUGAGGAUCACCCAUGUGUAGGAAAACUGCAUAUGAGAAGGCAGAUAGAUUGA [salish99_ss2_r3_036] (puzzle: Same State 2)”, for which the “apparent KD of MS2 coat protein” value worked out at 31.9 nM with MS2 coat protein (setting [4]), 299 nM with MS2 coat protein (setting [3]) and 1330 nM in the data set with MS2 coat protein (setting [5]).
Turning to “UUUGGUUUCUCGGCCGCCACUCGUUGGUAAUGGGCCUCAGGGAUAUAGUGAUGUUAUGUAAAGAAGAGGACCGGGAGAAGGAAGG [ExTryptoB.Dn]”, the “apparent KD of K4 kissing-loop reporter” value in data set [1] (input ligand: FMN 200 uM) stood at 235 nM; in data set [1] (input ligand: arginine 13.2 mM), 229 nM; in data set [1] (input ligand: none), 303 nM; in data set [1] (setting [6]) it was 267 nM; in data set [1] (setting [7]), 156 nM.
In the case of “UUUGGUUUCUCGGCCGCCACUCGUUGGUUAUGGGCUUCAGGGAUAUAGUGAUGUUAUGUAUAGAAGAGGACCGGGAGAAGGUUUU [ExTryptoB.Du]”, the “apparent KD of K4 kissing-loop reporter” value came to 215 nM in data set [1] (input ligand: FMN 200 uM); 368 nM in data set [1] (input ligand: arginine 13.2 mM); 330 nM in data set [1] (input ligand: none); 434 nM in data set [1] (setting [6]); 239 nM in data set [1] (setting [7]).
On to “UUUGUAGAGGGAAGGAGCGUGAAAGAGAAAGAAUAUAGUGAUGUUAUAUAGAAGAAAGAAUCACAGGUAGGUCGCCCGGAGGAGG [SSArgB.E]”, for which the “apparent KD of K4 kissing-loop reporter” value in data set [1] (input ligand: FMN 200 uM) was found to be 463 nM; in data set [1] (input ligand: arginine 13.2 mM), 436 nM; in data set [1] (input ligand: none), 458 nM; in data set [1] (setting [6]) it was 563 nM; in data set [1] (setting [7]), 295 nM.
For “UUUGUAGUGGGAGGAUAUCCUAAUAUGGGUGAUGUUAGCGAUGUUGAAGGUGUAGUGAUGUUAUGCGGAGAAGGCCCACUGUAGA [BDazzled - #20 - Exc. FMN B]”, the “apparent KD of K4 kissing-loop reporter” value in data set [1] (input ligand: FMN 200 uM) was found to be 543 nM; in data set [1] (input ligand: arginine 13.2 mM) it was 221 nM; in data set [1] (input ligand: none) it was 189 nM; in data set [1] (setting [6]) it was 614 nM; in data set [1] (setting [7]), 253 nM.
For “UUUUAAAUGUCUGAUACCAGAGAAAAUAUAUGUAGUGAUGUUAUAUACAAAAUAAAUAAGCUCCCUUGGCAGCAGUAUUAAUUUU [AstrosExc-TheB#6]” the same measures were 679 nM, 632 nM, 863 nM, 725 nM and 529 nM.
For “UUUUAUAACCGAAGGAGCGCGUGGGCGCAGUGAUGUUGCGCCCGACAUCACUUCAACUUAACGCAGGUAGGUCGCGGUUUUAAUG [Arginine B (Excl) V3]”, the “apparent KD of K4 kissing-loop reporter” value in data set [1] (input ligand: FMN 200 uM) was found to be 148 nM; in data set [1] (input ligand: arginine 13.2 mM), 147 nM; in data set [1] (input ligand: none), 181 nM; in data set [1] (setting [6]), 163 nM; in data set [1] (setting [7]) it was 168 nM.
Take “UUUUAUUCGUACUUCUAGUGAUGUUAGAUUCGAGGACCGGUACGGCCGCCACUCGUUAAGGCGAUUUUAUAUUUUUUAUUCUUUA [JR_SSTryptoA_Sub012]”: the “apparent KD of K4 kissing-loop reporter” value in data set [1] (input ligand: FMN 200 uM) was 182 nM; in data set [1] (input ligand: arginine 13.2 mM), 165 nM; in data set [1] (input ligand: none) it was 179 nM; in data set [1] (setting [6]), 165 nM; in data set [1] (setting [7]), 138 nM.
On to “UUUUGGUACUGAGGAUAUUCGACGAAAUAUAGUGAUGUUAUAUAAGGAGGAGGAGGGUGGGAGGAAGGAGAAGGCAGAAGAGGAG [#06 K4 FMN B Exclusion]”, for which the “apparent KD of K4 kissing-loop reporter” value came to 285 nM in data set [1] (input ligand: FMN 200 uM); 179 nM in data set [1] (input ligand: arginine 13.2 mM); 238 nM in data set [1] (input ligand: none); 285 nM in data set [1] (setting [6]); 185 nM in data set [1] (setting [7]).
Regarding “UUUUUAUGCAGUGAUGUUGCUAAUAUAACAGAGGAUAUGCAUUAAUGCAGAAGGCUGAAAUACUAUACUUUAAUAAAUUAAAUUU [JR_SSFMNA_Sub014]”, the “apparent KD of K4 kissing-loop reporter” value in data set [1] (input ligand: FMN 200 uM) amounted to 89.9 nM; in data set [1] (input ligand: arginine 13.2 mM) it was 109 nM; in data set [1] (input ligand: none) it was 85.5 nM; in data set [1] (setting [6]), 134 nM; in data set [1] (setting [7]), 85 nM.
Consider “UUUUUGGAGAAUUAUAGUGAUGUUAUGAAGGAGGAUAUCUGGAGAUGGAGAAGGCCUAGUGGCUCAGCCCUCGCGGGUGGGUGGG [ExFMNA.aD]”, for which the “apparent KD of K4 kissing-loop reporter” value in data set [1] (input ligand: FMN 200 uM) stood at 667 nM; in data set [1] (input ligand: arginine 13.2 mM) it was 518 nM; in data set [1] (input ligand: none), 456 nM; in data set [1] (setting [6]), 530 nM; in data set [1] (setting [7]) it was 426 nM.

The values above are taken from the supplement of paper PMC9170038.
